The record followed here is PMC7215387, “Comparison of Target Recognition by TRAF1 and TRAF2” (International Journal of Molecular Sciences, 2020).

Type in all cases: binding
Assay [1] deals with T1, TRAF1 (Homo sapiens, UniProt Q13077).
T1 construct: the TRAF1 TRAF domain (amino acid residues 220-416); 6xHis (C); made in house; host or cells: E. coli BL21 (DE3)
T1 sequence (Q13077 220-416): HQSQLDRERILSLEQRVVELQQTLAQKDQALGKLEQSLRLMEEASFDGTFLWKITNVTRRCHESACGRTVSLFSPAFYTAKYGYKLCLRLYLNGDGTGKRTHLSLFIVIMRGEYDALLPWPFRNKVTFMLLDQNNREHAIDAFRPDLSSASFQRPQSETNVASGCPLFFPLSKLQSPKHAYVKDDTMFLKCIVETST
In words: Native-PAGE complex formation with TRAF1. The conditions noted are these: 8% to 25% acrylamide gradient gels, Coomassie; 1 h at 4 °C; TRAF1 TRAF domain (220-416). The source says: (§1) TRADD is a well-known regulator of the TRAF function. The death domain located at the C-terminus of TRADD interacts with death-domain containing receptors and adaptor proteins including TNFR, receptor interacting protein 1 (RIP1) and Fas-associated death domain protein (FADD), while the N-terminal domain of TRADD (TRADD-N) interacts with the TRAF domain of TRAF2 (Figure 2a). Although several indirect interactions between TRAF1 and TRADD have been described, a direct interaction and direct analyses between TRAF1 and TRADD have not been reported. To directly study their interactions and binding properties, which may provide important clues for understanding TRAF-mediated signaling by TRADD, TRAFs and TRADD-N were purified, and initial interaction testing was performed by Native-PAGE. […] Although TRAF1 did interact with TRADD-N, this interaction was not as tight as with TRAF2 (Figure 2b). To further confirm this association, the interaction between the TRAFs and TRADD-N was further tested by size-exclusion chromatography. […]
The formation of complexes was assayed by native (non-denaturing) PAGE conducted on a PhastSystem (GE Healthcare) with pre-cast 8% to 25% acrylamide gradient gels (GE Healthcare). […] Complex formation was evaluated based on the appearance of newly formed bands or the disappearance of bands that were detected in single control protein bands.

Assay [2] addresses T1, TRAF1. In words: Complex formation assay by gel-filtration (size-exclusion) chromatography with TRAF1. The conditions noted are these: Superdex 200 10/30, 20 mM Tris pH 8.0, 150 mM NaCl; 1 h at 4 °C; peak shift approximately 16 mL.
Excerpt: as §1
(§2) Purified TRAF domains and TRADD-N proteins were mixed, incubated at 4 °C for 1 h, and concentrated to 4 to 5 mg/mL using a protein concentration kit (Millipore). […] Complex assembly was evaluated based on the positions of eluted protein peaks monitored at 280 nm followed by SDS-PAGE.

Assay [3] concerns the target T2, TRAF2 (Homo sapiens, UniProt Q12933).
T2 construct: TRAF2 TRAF domain (amino acid residues 305-501); 6xHis (C); made in house; host or cells: E. coli BL21 (DE3)
T2 sequence (Q12933 305-501): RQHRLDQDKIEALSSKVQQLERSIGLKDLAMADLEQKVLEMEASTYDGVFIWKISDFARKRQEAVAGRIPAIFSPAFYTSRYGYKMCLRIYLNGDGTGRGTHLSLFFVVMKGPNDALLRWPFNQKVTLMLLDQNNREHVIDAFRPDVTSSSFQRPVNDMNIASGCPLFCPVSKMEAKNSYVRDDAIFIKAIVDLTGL
In words: Complex formation assay by gel-filtration (size-exclusion) chromatography with TRAF2. The conditions noted are these: Superdex 200 10/30, 20 mM Tris pH 8.0, 150 mM NaCl; 1 h at 4 °C; peak around 14 mL.
Excerpt: as §1, §2
In general terms: In gel filtration, larger molecules generally elute earlier.

B1: TRADD-N: N-terminal domain of TRADD (TRADD-N, amino acid residues 1-163) (protein)
chain: MAAGQNGHEEWVGSAYLFVESSLDKVVLSDAYAHPQQKVAVYRALQAALAESGGSPDVLQMLKIHRSDPQLIVQLRFCGRQPCGRFLRAYREGALRAALQRSLAAALAQHSVPLQLELRAGAERLDALLADEERCLSCILAQQPDRLRDEELAELEDALRNLK
modifications: left off: His6 (from the vector pET24a), C-terminal, state not stated
Regarding B1, the “Native-PAGE band change on incubation with TRAF1” value in assay [1] is listed as “only a small portion of the TRADD-N band disappeared”. For the same molecule, the “co-migration with TRAF1 in size-exclusion chromatography / SDS-PAGE” value in assay [2] is recorded as “TRADD-N did not perfectly co-migrate with TRAF1”. Also, the “co-migration with TRAF2 in size-exclusion chromatography / SDS-PAGE” value in assay [3] is listed as “co-migrated well with TRADD-N at similar intensities”.
